The source of these data is the supplement of paper PMC10567573.

The labels stand for the following.
B1: LARP4 (parent)
chain: WTVANMEEIKKLTTDPDLILEVLR
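Further: lentivirally expressed fusions sorted by FACS into six bins by GFP to DsRed ratio, PSI derived from sequencing read proportions per bin multiplied by bin number.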

In this data set the parent is B1. The data set can be described thus: protein stability index of a GFP-peptide fusion (GPS, HEK-293T) (PSI 1-6); higher = more stable. The conditions noted are these: c terminus: a fixed tail appended.
For WTVANMEEIKKLTTDLDLILEVLR [P16L], the protein stability index came to 2.21.

Regarding WTVANMEEIKKLTTDRDLILEVLR [P16R], the protein stability index stood at 2.25.

For WTVANMEEIKKLTTFPDLILEVLR [D15F], the protein stability index was 1.7.

Consider WTVANMEEIKKLTTLPDLILEVLR [D15L], for which the protein stability index amounted to 2.1.

Consider WTVANMEEIKKLTTGPDLILEVLR [D15G], for which the protein stability index was 2.05.

In the case of WTVANMEEIKKLTTRPDLILEVLR [D15R], the protein stability index came out at 1.4.

Turning to WTVANMEEIKKLTTVPDLILEVLR [D15V], the protein stability index worked out at 1.59.

As for WTVANMEEIKKLTTEPDLILEVLR [D15E], the protein stability index was determined as 3.16.

Take WTVANMEEIKKLTTQPDLILEVLR [D15Q]: the protein stability index came to 2.1.

Take WTVANMEEIKKLTTHPDLILEVLR [D15H]: the protein stability index turned out to be 2.21.

Regarding WTVANMEEIKKLTTIPDLILEVLR [D15I], the protein stability index is 1.18.

Turning to WTVANMEEIKKLTTSPDLILEVLR [D15S], the protein stability index was found to be 1.53.

With WTVANMEEIKKLTTKPDLILEVLR [D15K], the protein stability index is 2.05.

Turning to WTVANMEEIKKLTTPPDLILEVLR [D15P], the protein stability index was 1.97.

Take WTVANMEEIKKLTTWPDLILEVLR [D15W]: the protein stability index is 1.89.

Turning to WTVANMEEIKKLTTCPDLILEVLR [D15C], the protein stability index is 1.53.

Turning to WTVANMEEIKKLTTMPDLILEVLR [D15M], the protein stability index amounted to 2.26.

Turning to WTVANMEEIKKLTTNPDLILEVLR [D15N], the protein stability index was 2.14.

Consider WTVANMEEIKKLTTAPDLILEVLR [D15A], for which the protein stability index amounted to 1.69.

As to WTVANMEEIKKLTTTPDLILEVLR [D15T], the protein stability index worked out at 2.

On to WTVANMEEIKKLTTYPDLILEVLR [D15Y], for which the protein stability index stood at 1.38.

In the case of WTVANMEEIKKLTTDPDLQLEVLR [I19Q], the protein stability index was 3.12.

In the case of WTVANMEEIKKLTTDPDLLLEVLR [I19L], the protein stability index stood at 2.12.

With WTVANMEEIKKLTTDPDLYLEVLR [I19Y], the protein stability index stood at 2.67.

For the variant WTVANMEEIKKLTTDPDLELEVLR [I19E], the protein stability index worked out at 3.4.

For the variant WTVANMEEIKKLTTDPDLPLEVLR [I19P], the protein stability index turned out to be 3.42.

Consider WTVANMEEIKKLTTDPDLTLEVLR [I19T], for which the protein stability index was 2.96.

With WTVANMEEIKKLTTDPDLDLEVLR [I19D], the protein stability index came out at 3.77.

On to WTVANMEEIKKLTTDPDLHLEVLR [I19H], for which the protein stability index was determined as 2.82.

For the variant WTVANMEEIKKLTTDPDLNLEVLR [I19N], the protein stability index turned out to be 2.91.

WTVANMEEIKKLTTDPDLKLEVLR [I19K]: the protein stability index stood at 3.21.

For the variant WTVANMEEIKKLTTDPDLSLEVLR [I19S], the protein stability index turned out to be 3.09.

As for WTVANMEEIKKLTTDPDLALEVLR [I19A], the protein stability index turned out to be 2.49.

For WTVANMEEIKKLTTDPDLCLEVLR [I19C], the protein stability index was 1.96.

Consider WTVANMEEIKKLTTDPDLFLEVLR [I19F], for which the protein stability index came out at 2.18.

For WTVANMEEIKKLTTDPDLWLEVLR [I19W], the protein stability index is 2.47.

For the variant WTVANMEEIKKLTTDPDLRLEVLR [I19R], the protein stability index is 3.21.

Consider WTVANMEEIKKLTTDPDLGLEVLR [I19G], for which the protein stability index turned out to be 2.26.

In the case of WTVANMEEIKKLTTDPDLVLEVLR [I19V], the protein stability index was 1.59.

Regarding WTVANMEEIKKLTTDPDLMLEVLR [I19M], the protein stability index is 2.73.

Regarding WTVANMEEIKKLTTDPHLILEVLR [D17H], the protein stability index was 1.88.

For the variant WTVANMEEIKKLTTDPWLILEVLR [D17W], the protein stability index was found to be 1.49.

In the case of WTVANMEEIKKLTTDPELILEVLR [D17E], the protein stability index turned out to be 1.79.

For the variant WTVANMEEIKKLTTDPLLILEVLR [D17L], the protein stability index came out at 1.52.

On to WTVANMEEIKKLTTDPYLILEVLR [D17Y], for which the protein stability index was determined as 1.53.

Consider WTVANMEEIKKLTTDPNLILEVLR [D17N], for which the protein stability index amounted to 1.93.

For WTVANMEEIKKLTTDPRLILEVLR [D17R], the protein stability index was found to be 1.86.

Take WTVANMEEIKKLTTDPTLILEVLR [D17T]: the protein stability index came out at 1.77.

Regarding WTVANMEEIKKLTTDPKLILEVLR [D17K], the protein stability index was determined as 2.05.

Regarding WTVANMEEIKKLTTDPCLILEVLR [D17C], the protein stability index worked out at 1.44.

Take WTVANMEEIKKLTTDPVLILEVLR [D17V]: the protein stability index is 1.98.

For the variant WTVANMEEIKKLTTDPSLILEVLR [D17S], the protein stability index worked out at 2.02.

For WTVANMEEIKKLTTDPILILEVLR [D17I], the protein stability index is 1.25.

For WTVANMEEIKKLTTDPPLILEVLR [D17P], the protein stability index is 2.2.

With WTVANMEEIKKLTTDPFLILEVLR [D17F], the protein stability index stood at 1.77.

For WTVANMEEIKKLTTDPGLILEVLR [D17G], the protein stability index is 1.51.

Turning to WTVANMEEIKKLTTDPMLILEVLR [D17M], the protein stability index was 2.16.

Take WTVANMEEIKKLTTDPQLILEVLR [D17Q]: the protein stability index is 2.32.

As to WTVANMEEIKKLTTDPALILEVLR [D17A], the protein stability index worked out at 2.09.

For WTVANMEEIKKLTTDPDLILECLR [V22C], the protein stability index stood at 2.86.

As to WTVANMEEIKKLTTDPDLILEELR [V22E], the protein stability index was determined as 3.59.

On to WTVANMEEIKKLTTDPDLILEQLR [V22Q], for which the protein stability index was determined as 3.18.

As to WTVANMEEIKKLTTDPDLILEALR [V22A], the protein stability index was 2.79.

As to WTVANMEEIKKLTTDPDLILEYLR [V22Y], the protein stability index was found to be 2.64.

For WTVANMEEIKKLTTDPDLILEILR [V22I], the protein stability index came to 2.14.

As for WTVANMEEIKKLTTDPDLILEFLR [V22F], the protein stability index amounted to 2.77.

With WTVANMEEIKKLTTDPDLILETLR [V22T], the protein stability index came out at 2.25.

Turning to WTVANMEEIKKLTTDPDLILEDLR [V22D], the protein stability index was 3.77.

WTVANMEEIKKLTTDPDLILEKLR [V22K]: the protein stability index amounted to 3.3.

Consider WTVANMEEIKKLTTDPDLILERLR [V22R], for which the protein stability index came to 2.48.

WTVANMEEIKKLTTDPDLILEGLR [V22G]: the protein stability index amounted to 2.48.

For the variant WTVANMEEIKKLTTDPDLILELLR [V22L], the protein stability index turned out to be 2.34.

As to WTVANMEEIKKLTTDPDLILESLR [V22S], the protein stability index stood at 2.56.

As to WTVANMEEIKKLTTDPDLILEHLR [V22H], the protein stability index was 3.48.

Turning to WTVANMEEIKKLTTDPDLILENLR [V22N], the protein stability index amounted to 3.25.

On to WTVANMEEIKKLTTDPDLILEMLR [V22M], for which the protein stability index stood at 1.91.

As for WTVANMEEIKKLTTDPDLILEPLR [V22P], the protein stability index came to 2.23.

With WTVANMEEIKKLTTDPDLILEWLR [V22W], the protein stability index came to 2.33.

As to WTVANMEEIKKLVTDPDLILEVLR [T13V], the protein stability index stood at 2.94.

As to WTVANMEEIKKLYTDPDLILEVLR [T13Y], the protein stability index is 1.86.

In the case of WTVANMEEIKKLMTDPDLILEVLR [T13M], the protein stability index amounted to 1.87.

Take WTVANMEEIKKLFTDPDLILEVLR [T13F]: the protein stability index was 1.82.

Take WTVANMEEIKKLHTDPDLILEVLR [T13H]: the protein stability index was determined as 1.97.

Take WTVANMEEIKKLPTDPDLILEVLR [T13P]: the protein stability index came to 2.24.

For the variant WTVANMEEIKKLGTDPDLILEVLR [T13G], the protein stability index was found to be 2.23.

For the variant WTVANMEEIKKLETDPDLILEVLR [T13E], the protein stability index is 2.24.

Regarding WTVANMEEIKKLRTDPDLILEVLR [T13R], the protein stability index came to 1.82.

As to WTVANMEEIKKLSTDPDLILEVLR [T13S], the protein stability index was 1.39.

WTVANMEEIKKLNTDPDLILEVLR [T13N]: the protein stability index was 1.92.

Consider WTVANMEEIKKLWTDPDLILEVLR [T13W], for which the protein stability index is 1.83.

Regarding WTVANMEEIKKLQTDPDLILEVLR [T13Q], the protein stability index is 1.58.

With WTVANMEEIKKLITDPDLILEVLR [T13I], the protein stability index was found to be 2.04.

As for WTVANMEEIKKLKTDPDLILEVLR [T13K], the protein stability index amounted to 2.02.

WTVANMEEIKKLLTDPDLILEVLR [T13L]: the protein stability index was 2.14.
